Molecular target: lactate dehydrogenase (PfLDH) (Plasmodium falciparum, UniProt Q76NM3 Q76NM3:1-316)
Experiment: sandwich plasmon-enhanced fluorescence apta-immunosensor; PfLDH captured by anti-pLDH on AuNPs from diluted human blood; 0.1 uM aptamer in 10 mM PBS with 1 mM MgCl2 pH 7.1; signal orders of magnitude above PvLDH
Conditions: tags: obtained by bacterial expression; chain copies: 4
Procedure: Uninfected human blood was diluted 1:100 in 25 mM Tris buffer to reduce sample turbidity. The desired amount of Plasmodium falciparum lactate dehydrogenase (P<DH) was added to 1 ml of a diluted solution of the sample to obtain analyte concentrations ranging from 1 fM to 1 μm (based on the undiluted blood). The functionalised substrates were incubated with 1 ml of contaminated blood solution for 2 hours at room temperature.
The specificity of the apta immunosensor was tested against lactate dehydrogenase of Plasmodium vivax (P<LDH), which is 90% identical to P<LDH. The P<LDH was added to uninfected human blood (diluted 1:100 in 1 mL 25 mM Tris buffer) to obtain the highest analyte concentration tested in the calibration curve (1 μM based on undiluted whole blood).

Does CTGGGCGGTAGAACCATAGTGACCCAGCCGTCTAC (ssDNA) [malaria 2008s aptamer] bind?
Result: binds

From patent US20230243823, “BIOMARKER SENSOR-BASED DETECTION OF DISEASE-SPECIFIC BIOMARKERS” (FORSCHUNGSZENTRUM JÜLICH GMBH, published 2023)
